From PMC5499575 (Nucleic Acids Research, 2017)

Target: T1, HDA15-GST (Arabidopsis, UniProt Q8GXJ1 1-552)
T1 sequence (looked up): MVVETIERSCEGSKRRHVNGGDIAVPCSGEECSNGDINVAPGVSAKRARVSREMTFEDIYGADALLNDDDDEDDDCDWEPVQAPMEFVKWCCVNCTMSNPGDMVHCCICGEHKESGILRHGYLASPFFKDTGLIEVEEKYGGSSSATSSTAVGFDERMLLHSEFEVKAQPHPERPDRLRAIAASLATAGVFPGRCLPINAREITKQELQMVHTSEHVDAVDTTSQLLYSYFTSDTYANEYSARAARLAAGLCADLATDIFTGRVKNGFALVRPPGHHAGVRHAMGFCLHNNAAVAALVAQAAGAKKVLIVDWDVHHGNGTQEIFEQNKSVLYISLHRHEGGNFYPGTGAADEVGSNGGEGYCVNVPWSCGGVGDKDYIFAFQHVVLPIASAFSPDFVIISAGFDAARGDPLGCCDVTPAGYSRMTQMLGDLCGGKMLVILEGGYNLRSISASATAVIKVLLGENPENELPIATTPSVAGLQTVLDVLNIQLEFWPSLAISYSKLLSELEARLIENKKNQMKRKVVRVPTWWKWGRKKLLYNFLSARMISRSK
Assay: pull-down

B1: PIF1-His (natural protein, Arabidopsis, UniProt Q8GZM7 1-478, looked up)
chain: MHHFVPDFDTDDDYVNNHNSSLNHLPRKSITTMGEDDDLMELLWQNGQVVVQNQRLHTKKPSSSPPKLLPSMDPQQQPSSDQNLFIQEDEMTSWLHYPLRDDDFCSDLLFSAAPTATATATVSQVTAARPPVSSTNESRPPVRNFMNFSRLRGDFNNGRGGESGPLLSKAVVRESTQVSPSATPSAAASESGLTRRTDGTDSSAVAGGGAYNRKGKAVAMTAPAIEITGTSSSVVSKSEIEPEKTNVDDRKRKEREATTTDETESRSEETKQARVSTTSTKRSRAAEVHNLSERKRRDRINERMKALQELIPRCNKSDKASMLDEAIEYMKSLQLQIQMMSMGCGMMPMMYPGMQQYMPHMAMGMGMNQPIPPPSFMPFPNMLAAQRPLPTQTHMAGSGPQYPVHASDPSRVFVPNQQYDPTSGQPQYPAGYTDPYQQFRGLHPTQPPQFQNQATSYPSSSRVSSSKESEDHGNHTTG
binding result: binds
